Laboratory results reported in patent US20150307617A1.

What was measured:
[1] = target: human OX40 expressed on transfected BT-474 cells (fusion with 5' HSV glycoprotein D tag) (human) (UniProt P43489); experiment: flow cytometry, ACT35-PE staining of the BT474-human OX40 low clone
[2] = target: human OX40 expressed on transfected BT-474 cells (fusion with 5' HSV glycoprotein D tag) (human) (UniProt P43489); experiment: flow cytometry, ACT35-PE staining of the BT474-human OX40-high clone

human OX40 expressed on transfected BT-474 cells (fusion with 5' HSV glycoprotein D tag) (human), sequence (P43489 29-277): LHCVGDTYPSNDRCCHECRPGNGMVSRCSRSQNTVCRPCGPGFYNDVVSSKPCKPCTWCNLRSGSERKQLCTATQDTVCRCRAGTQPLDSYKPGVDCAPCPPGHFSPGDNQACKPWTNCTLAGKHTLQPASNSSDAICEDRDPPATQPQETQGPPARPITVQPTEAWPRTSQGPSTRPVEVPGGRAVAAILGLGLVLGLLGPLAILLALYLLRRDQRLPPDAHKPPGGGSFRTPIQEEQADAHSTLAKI

MFI [1]: 994 MFI
MFI [2]: 5240 MFI
Substance: anti-human OX40 (PE) (clone ACT35) (antibody)
